From publication PMC9482650, “Quantitative fragmentomics allow affinity mapping of interactomes” (Nature Communications, 2022)

T1: DFNB31_1, Q9P202
T1 sequence (Q9P202 135-233, limits assumed, looked up): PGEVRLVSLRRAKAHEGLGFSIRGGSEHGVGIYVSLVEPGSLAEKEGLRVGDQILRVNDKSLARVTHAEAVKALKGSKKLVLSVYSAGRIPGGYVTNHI

T2: LNX2_2, Q8N448
T2 sequence (Q8N448 334-432, limits assumed, looked up): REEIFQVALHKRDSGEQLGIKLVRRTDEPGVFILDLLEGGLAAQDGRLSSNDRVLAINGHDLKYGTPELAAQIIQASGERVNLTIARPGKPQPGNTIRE

T3: APBA3_1, O96018
T3 sequence (O96018 389-490, limits assumed, looked up): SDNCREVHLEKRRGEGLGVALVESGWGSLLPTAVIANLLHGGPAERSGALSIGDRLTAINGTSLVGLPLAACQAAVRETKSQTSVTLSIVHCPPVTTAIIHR

T4: SHANK1, Q9Y566
T4 sequence (Q9Y566 658-767, limits assumed, looked up): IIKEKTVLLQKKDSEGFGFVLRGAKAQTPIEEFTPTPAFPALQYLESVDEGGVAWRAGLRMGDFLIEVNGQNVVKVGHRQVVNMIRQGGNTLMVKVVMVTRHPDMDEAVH

T5: DFNB31_3, Q9P202
T5 sequence (Q9P202 811-907, limits assumed, looked up): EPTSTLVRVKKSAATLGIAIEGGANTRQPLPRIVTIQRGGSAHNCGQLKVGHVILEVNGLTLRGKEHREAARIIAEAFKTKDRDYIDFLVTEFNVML

T6: MPDZ_12, O75970
T6 sequence (O75970 1857-1958, limits assumed, looked up): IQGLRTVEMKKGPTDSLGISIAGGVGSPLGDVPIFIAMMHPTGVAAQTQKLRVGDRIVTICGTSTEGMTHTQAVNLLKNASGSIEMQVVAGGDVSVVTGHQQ

T7: MPP2, Q14168
T7 sequence (Q14168 180-250, limits assumed, looked up): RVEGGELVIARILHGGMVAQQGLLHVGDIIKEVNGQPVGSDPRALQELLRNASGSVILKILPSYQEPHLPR

T8: PDZD7_3, Q9H5P4
T8 sequence (Q9H5P4 857-944, limits assumed, looked up): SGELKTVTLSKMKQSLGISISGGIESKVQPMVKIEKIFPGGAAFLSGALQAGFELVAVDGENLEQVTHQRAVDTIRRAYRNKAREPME

T9: DLG3_3, Q92796
T9 sequence (Q92796 374-475, limits assumed, looked up): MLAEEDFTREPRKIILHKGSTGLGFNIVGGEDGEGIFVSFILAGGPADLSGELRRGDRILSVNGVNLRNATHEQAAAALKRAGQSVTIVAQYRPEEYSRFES

T10: MPP6, Q9NZW5
T10 sequence (Q9NZW5 125-219, limits assumed, looked up): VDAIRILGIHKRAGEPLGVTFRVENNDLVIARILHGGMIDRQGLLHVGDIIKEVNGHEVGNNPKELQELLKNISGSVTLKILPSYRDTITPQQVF

B1: CLDN7, O95471 (peptide)
chain: PKSNSSKEYV
B2: TYRP1, P17643 (peptide)
chain: KLQNPNQSVV

Experiments:
Assay in all cases: holdup assay
Parameters in all cases: key: below the threshold = too weak to quantify, mostly under pKd 3.1 to 4
Details in all cases: plain residues with an end cap or a label only (N-terminal biotin on a linker: ado-ado)
[1] = molecular target: FRMPD3, Q5JV73
Sequence of FRMPD3, Q5JV73 (Q5JV73 12-100): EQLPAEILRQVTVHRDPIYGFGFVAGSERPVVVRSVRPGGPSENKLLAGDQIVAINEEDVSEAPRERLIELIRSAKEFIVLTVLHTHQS

[2] = molecular target: DLG4_2, P78352
Sequence of DLG4_2, P78352 (P78352 155-259): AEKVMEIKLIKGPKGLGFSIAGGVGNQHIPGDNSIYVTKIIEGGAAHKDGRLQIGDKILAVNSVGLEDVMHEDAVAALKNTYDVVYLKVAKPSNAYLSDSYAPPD

[3] = molecular target: T1, DFNB31_1, Q9P202
[4] = molecular target: T2, LNX2_2, Q8N448
[5] = molecular target: IL16_3, Q14005
Sequence of IL16_3, Q14005 (Q14005 1107-1207): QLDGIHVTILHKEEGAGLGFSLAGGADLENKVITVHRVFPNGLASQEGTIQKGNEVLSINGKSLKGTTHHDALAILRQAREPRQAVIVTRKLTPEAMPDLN

[6] = molecular target: GRIP2_5, Q9C0E4
Sequence of GRIP2_5, Q9C0E4 (Q9C0E4 544-642): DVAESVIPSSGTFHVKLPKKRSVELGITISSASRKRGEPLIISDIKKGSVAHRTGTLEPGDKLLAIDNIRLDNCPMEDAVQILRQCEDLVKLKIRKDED

[7] = molecular target: TJP1_3, Q07157
Sequence of TJP1_3, Q07157 (Q07157 416-512): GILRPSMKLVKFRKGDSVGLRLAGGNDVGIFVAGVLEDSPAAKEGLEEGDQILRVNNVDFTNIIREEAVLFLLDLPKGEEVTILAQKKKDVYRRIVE

[8] = molecular target: PTPN3, P26045
Sequence of PTPN3, P26045 (P26045 505-587): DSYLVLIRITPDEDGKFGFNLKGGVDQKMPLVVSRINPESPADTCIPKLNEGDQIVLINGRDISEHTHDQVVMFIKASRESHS

[9] = molecular target: MAGI3_2, Q5TCQ9
Sequence of MAGI3_2, Q5TCQ9 (Q5TCQ9 398-503): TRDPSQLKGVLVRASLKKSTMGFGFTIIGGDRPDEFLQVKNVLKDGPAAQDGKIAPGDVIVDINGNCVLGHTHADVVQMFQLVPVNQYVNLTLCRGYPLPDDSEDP

[10] = molecular target: T3, APBA3_1, O96018
[11] = molecular target: T4, SHANK1, Q9Y566
[12] = molecular target: GRIP2_3, Q9C0E4
Sequence of GRIP2_3, Q9C0E4 (Q9C0E4 238-339): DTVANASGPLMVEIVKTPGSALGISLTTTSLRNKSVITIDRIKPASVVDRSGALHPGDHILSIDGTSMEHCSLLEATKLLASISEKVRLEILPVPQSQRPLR

[13] = molecular target: Inadl_8, Q8NI35
Sequence of Inadl_8, Q8NI35 (Q8NI35 1425-1530): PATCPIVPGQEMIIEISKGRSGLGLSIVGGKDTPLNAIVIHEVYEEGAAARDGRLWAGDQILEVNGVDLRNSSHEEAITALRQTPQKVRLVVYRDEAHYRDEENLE

[14] = molecular target: MAGI2_4, Q86UL8
Sequence of MAGI2_4, Q86UL8 (Q86UL8 772-865): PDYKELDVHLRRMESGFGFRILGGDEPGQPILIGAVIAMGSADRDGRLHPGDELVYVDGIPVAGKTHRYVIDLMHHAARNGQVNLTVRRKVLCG

[15] = molecular target: T5, DFNB31_3, Q9P202
[16] = molecular target: T6, MPDZ_12, O75970
[17] = molecular target: MAGI2_6, Q86UL8
Sequence of MAGI2_6, Q86UL8 (Q86UL8 1141-1229): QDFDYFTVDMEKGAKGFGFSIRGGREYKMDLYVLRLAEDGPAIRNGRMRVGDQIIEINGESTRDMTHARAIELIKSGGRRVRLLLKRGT

[18] = molecular target: CASK, O14936
Sequence of CASK, O14936 (O14936 487-570): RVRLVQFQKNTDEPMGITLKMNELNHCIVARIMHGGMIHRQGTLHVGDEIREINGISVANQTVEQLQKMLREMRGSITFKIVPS

[19] = molecular target: LDB3, O75112
Sequence of LDB3, O75112 (O75112 1-94): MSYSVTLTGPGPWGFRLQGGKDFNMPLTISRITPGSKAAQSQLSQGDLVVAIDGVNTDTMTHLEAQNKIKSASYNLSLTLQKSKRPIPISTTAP

[20] = molecular target: T7, MPP2, Q14168
[21] = molecular target: T8, PDZD7_3, Q9H5P4
[22] = molecular target: T9, DLG3_3, Q92796
[23] = molecular target: SCRIB_3, Q14160
Sequence of SCRIB_3, Q14160 (Q14160 999-1103): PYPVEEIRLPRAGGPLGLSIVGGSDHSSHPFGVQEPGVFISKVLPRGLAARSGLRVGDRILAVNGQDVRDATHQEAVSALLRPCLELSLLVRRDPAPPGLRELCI

[24] = molecular target: Inadl_1, Q8NI35
Sequence of Inadl_1, Q8NI35 (Q8NI35 113-229): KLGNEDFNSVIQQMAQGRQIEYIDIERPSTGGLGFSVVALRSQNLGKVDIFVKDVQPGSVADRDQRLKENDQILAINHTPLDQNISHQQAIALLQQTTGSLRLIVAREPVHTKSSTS

[25] = molecular target: T10, MPP6, Q9NZW5
[26] = molecular target: LIMK2, P53671
Sequence of LIMK2, P53671 (P53671 143-248): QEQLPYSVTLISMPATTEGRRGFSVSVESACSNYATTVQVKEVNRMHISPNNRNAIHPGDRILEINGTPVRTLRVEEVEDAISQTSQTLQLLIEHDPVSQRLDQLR

[27] = molecular target: GRIP2_4, Q9C0E4
Sequence of GRIP2_4, Q9C0E4 (Q9C0E4 446-548): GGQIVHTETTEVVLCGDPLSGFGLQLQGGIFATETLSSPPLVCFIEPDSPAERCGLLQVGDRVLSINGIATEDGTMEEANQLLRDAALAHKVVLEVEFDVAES

[28] = molecular target: GRIP2_6, Q9C0E4
Sequence of GRIP2_6, Q9C0E4 (Q9C0E4 648-740): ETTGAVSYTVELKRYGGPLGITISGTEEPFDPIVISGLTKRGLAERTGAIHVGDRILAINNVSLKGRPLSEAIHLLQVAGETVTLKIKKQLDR

[29] = molecular target: DLG4_1, P78352
Sequence of DLG4_1, P78352 (P78352 62-152): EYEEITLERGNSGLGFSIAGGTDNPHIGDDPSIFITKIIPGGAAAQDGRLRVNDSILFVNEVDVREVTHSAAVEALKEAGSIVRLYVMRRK

Row | Binder | pKd [1] | pKd [2] | pKd [3] | pKd [4] | pKd [5] | pKd [6] | pKd [7] | pKd [8] | pKd [9] | pKd [10] | pKd [11] | pKd [12] | pKd [13] | pKd [14] | pKd [15] | pKd [16] | pKd [17] | pKd [18] | pKd [19] | pKd [20] | other results
1 | B1 | below the threshold | below the threshold | below the threshold | below the threshold | below the threshold | below the threshold | below the threshold | below the threshold | below the threshold | below the threshold | below the threshold | below the threshold | below the threshold | below the threshold | below the threshold | below the threshold | below the threshold | below the threshold | below the threshold | below the threshold | pKd [21]: below the threshold; pKd [22]: below the threshold; pKd [23]: below the threshold; pKd [24]: below the threshold; pKd [25]: below the threshold; pKd [26]: below the threshold; pKd [27]: below the threshold; pKd [28]: below the threshold; pKd [29]: below the threshold
2 | B2 | below the threshold | 4.11 | 3.61 | 4.32 | below the threshold | below the threshold | below the threshold | below the threshold | 4.46 | below the threshold | below the threshold | below the threshold | 3.97 | 3.63 | below the threshold | below the threshold | below the threshold | below the threshold | below the threshold | below the threshold | pKd [21]: 4.22; pKd [22]: below the threshold; pKd [23]: below the threshold; pKd [24]: below the threshold; pKd [25]: below the threshold; pKd [26]: below the threshold; pKd [27]: below the threshold; pKd [28]: below the threshold; pKd [29]: 3.91
